In the supplement of paper PMC9170038:

Test system: K4 kissing-loop RNA reporter
Test: apparent KD of K4 kissing-loop reporter; higher = weaker reporter binding
Details: Eterna round: R107
Procedure: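 RNA-MaP round R107: designed RNA switches with theophylline, tryptophan, arginine or FMN aptamers are transcribed on-chip within common flanks. They are titrated with a labelled K4 kissing-loop RNA reporter in RNA-MaP buffer (100 mM Tris pH 7.5, 80 mM KCl, 4 mM MgCl2), without ligand or with the indicated ligand. Median apparent KD per design.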

[1] = input ligand: theophylline 20 uM
[2] = input ligand: tryptophan 2.4 mM
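Further: bound reporter read as fluorescence of individual clusters on recovered sequencing chips by microscopy, with normalized cluster intensities fitted with a binding model.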

GGUAGCAUGGCGGCCGCCACUACCUAGUGAUGUUAGGCUGUGGACAUAGGAGCAAAAUAAAUAUGUAGGACCGGGCCAUGCUACC
apparent KD of K4 kissing-loop reporter (input ligand: FMN 200 uM): 127 nM
apparent KD of K4 kissing-loop reporter (input ligand: arginine 13.2 mM): 101 nM
apparent KD of K4 kissing-loop reporter (input ligand: none): 121 nM
apparent KD of K4 kissing-loop reporter [1]: 126 nM
apparent KD of K4 kissing-loop reporter [2]: 123 nM

GCCGUACGCAUGGAUACCAGCAAGCAUAGCAGGAAACUGCUAUGCACCAGUGAUGUUGGAUGCCCUUGGCAGCCAUGCGUACGGC
apparent KD of K4 kissing-loop reporter (input ligand: FMN 200 uM): 1250 nM
apparent KD of K4 kissing-loop reporter (input ligand: arginine 13.2 mM): 754 nM
apparent KD of K4 kissing-loop reporter (input ligand: none): 926 nM
apparent KD of K4 kissing-loop reporter [1]: 439 nM
apparent KD of K4 kissing-loop reporter [2]: 1110 nM

AAGCAGUCACCCGAAGCCAUCGAAGAUGGACGAGGACCGGUACGGCCGCCACUCGGAGUGAUGUUCCGAAGACUGCAAAAUAAAA
apparent KD of K4 kissing-loop reporter (input ligand: FMN 200 uM): 269 nM
apparent KD of K4 kissing-loop reporter (input ligand: arginine 13.2 mM): 272 nM
apparent KD of K4 kissing-loop reporter (input ligand: none): 302 nM
apparent KD of K4 kissing-loop reporter [1]: 304 nM
apparent KD of K4 kissing-loop reporter [2]: 412 nM

AAGUGGGAACGGCCCAAUAAAGUGUUUGUCAAGGAUAUUAUUCACAUAAGAAGGUGACAGACCACCUCCGGAGUGAUGUUUUGGA [theeternabot_sameState_KL_FMN_A_42]
apparent KD of K4 kissing-loop reporter (input ligand: FMN 200 uM): 581 nM
apparent KD of K4 kissing-loop reporter (input ligand: arginine 13.2 mM): 443 nM
apparent KD of K4 kissing-loop reporter (input ligand: none): 719 nM
apparent KD of K4 kissing-loop reporter [1]: 508 nM
apparent KD of K4 kissing-loop reporter [2]: 539 nM

CAAAUAAAUAUAAUUGAUAAGUGAUGUUGGCGAGGACCGGUACGGCCGCCACUCGAUAUCGGUCCAUUAACCGAGUGAUGUUUGG [Default title]
apparent KD of K4 kissing-loop reporter (input ligand: FMN 200 uM): 102 nM
apparent KD of K4 kissing-loop reporter (input ligand: arginine 13.2 mM): 58.9 nM
apparent KD of K4 kissing-loop reporter (input ligand: none): 81.1 nM
apparent KD of K4 kissing-loop reporter [1]: 67.4 nM
apparent KD of K4 kissing-loop reporter [2]: 83.7 nM

AGUGUUAGGUUAGAUACCAGCCGUCUGUGGAUAAUCCACAGACCGCCAGUGAUGUUGGCAGGCCCUUGGCAGCUAACAGGACAGA [Riedingeus]
apparent KD of K4 kissing-loop reporter (input ligand: FMN 200 uM): 239 nM
apparent KD of K4 kissing-loop reporter (input ligand: arginine 13.2 mM): 215 nM
apparent KD of K4 kissing-loop reporter (input ligand: none): 220 nM
apparent KD of K4 kissing-loop reporter [1]: 153 nM
apparent KD of K4 kissing-loop reporter [2]: 208 nM

AGCGCUGCCUGAGGAUAUAGAAACGAGUGAUGUUCGUGGAUUGAUACCAGUGAUGUUGGCCUAUUUCUAGAAGGCAGGCGAUCGU [Exclusion FMN B GF2]
apparent KD of K4 kissing-loop reporter (input ligand: FMN 200 uM): 172 nM
apparent KD of K4 kissing-loop reporter (input ligand: arginine 13.2 mM): 97.1 nM
apparent KD of K4 kissing-loop reporter (input ligand: none): 136 nM
apparent KD of K4 kissing-loop reporter [1]: 88.2 nM
apparent KD of K4 kissing-loop reporter [2]: 114 nM

GCUAUGGUAGGAAGGAGCGCUUGCUCGGUCAUAAGAGUGAUGUUCGAGACCGAGCAUUUAUAGCAGGUAGGUCGCCUACUAUAGC [Arginine B K4 7]
apparent KD of K4 kissing-loop reporter (input ligand: FMN 200 uM): 310 nM
apparent KD of K4 kissing-loop reporter (input ligand: arginine 13.2 mM): 194 nM
apparent KD of K4 kissing-loop reporter (input ligand: none): 200 nM
apparent KD of K4 kissing-loop reporter [1]: 256 nM
apparent KD of K4 kissing-loop reporter [2]: 250 nM

UGACUGGAUGGAAGGAGCGCUAAACUCCUAGUGAUGUUAGGGACAUGAGGCAUAGCCUUGAAGCAGGUAGGUCGCCAUCUAGUCU [FiskerMod 29 - Jieux - Same State - Arginine B]
apparent KD of K4 kissing-loop reporter (input ligand: FMN 200 uM): 193 nM
apparent KD of K4 kissing-loop reporter (input ligand: arginine 13.2 mM): 132 nM
apparent KD of K4 kissing-loop reporter (input ligand: none): 184 nM
apparent KD of K4 kissing-loop reporter [1]: 189 nM
apparent KD of K4 kissing-loop reporter [2]: 144 nM

CGCCGCAAGGCGAGCGCUCCCACUCCGGAAGGAGCGCCCGGAAGGGCAGGUAGGUCGCCGGAGUGAUGUUCCGGUGGAGGGCUCG [#2 Exclusion - Arginine A Attempt #13 (Inspired by Omei)]
apparent KD of K4 kissing-loop reporter (input ligand: FMN 200 uM): 358 nM
apparent KD of K4 kissing-loop reporter (input ligand: arginine 13.2 mM): 248 nM
apparent KD of K4 kissing-loop reporter (input ligand: none): 334 nM
apparent KD of K4 kissing-loop reporter [1]: 491 nM
apparent KD of K4 kissing-loop reporter [2]: 416 nM

GACAAUUCCGCUUCCGAGCAUACUUGACUGAAGGAUAUCAUCGUGUUGAGAAGGUCAGUAACAGAGAGUGAUGUUCUUUGAGGUC [theeternabot_sameState_KL_FMN_A_19]
apparent KD of K4 kissing-loop reporter (input ligand: FMN 200 uM): 242 nM
apparent KD of K4 kissing-loop reporter (input ligand: arginine 13.2 mM): 168 nM
apparent KD of K4 kissing-loop reporter (input ligand: none): 234 nM
apparent KD of K4 kissing-loop reporter [1]: 207 nM
apparent KD of K4 kissing-loop reporter [2]: 151 nM

CCCUAUAUAUGCAGUGAUGUUGCAACUGAUACCAGUAUCGAAAGAUACCCUUGGCAGCGGAAAACCGCUACGUAAUUUAAUAGGG [Ex Theophylline A K4 21]
apparent KD of K4 kissing-loop reporter (input ligand: FMN 200 uM): 384 nM
apparent KD of K4 kissing-loop reporter (input ligand: arginine 13.2 mM): 422 nM
apparent KD of K4 kissing-loop reporter (input ligand: none): 419 nM
apparent KD of K4 kissing-loop reporter [1]: 461 nM
apparent KD of K4 kissing-loop reporter [2]: 265 nM

GAGGUACAGGCGGCCGCCACUAGUGAUGUUAGUGAUGUUUGAUACUGUAUAUAUCGGCGUGUAGAUAGGACCGGGCCUGAUGGAG [znmkmullin]
apparent KD of K4 kissing-loop reporter (input ligand: FMN 200 uM): 122 nM
apparent KD of K4 kissing-loop reporter (input ligand: arginine 13.2 mM): 78.7 nM
apparent KD of K4 kissing-loop reporter (input ligand: none): 100 nM
apparent KD of K4 kissing-loop reporter [1]: 109 nM
apparent KD of K4 kissing-loop reporter [2]: 91.8 nM

GGCGCAGUGAUGUUGCGGGCCGAGAGUGAUACCAGCCGUAUUUGUGGCCCUUGGCAGCGCAGAACCAGUGAUGUUGGUUACUUGG [Same State Theophylline A GF 22]
apparent KD of K4 kissing-loop reporter (input ligand: FMN 200 uM): 223 nM
apparent KD of K4 kissing-loop reporter (input ligand: arginine 13.2 mM): 513 nM
apparent KD of K4 kissing-loop reporter (input ligand: none): 423 nM
apparent KD of K4 kissing-loop reporter [1]: 467 nM
apparent KD of K4 kissing-loop reporter [2]: 421 nM

CACGUUUACCAAGGAUAUGGUCUGCCGCGGAACCGUUCAAGUGAUGUUUGAUUCGAGUAUUAAUCUCCAGAAGGUGGUAGUACAG [theeternabot_exclusion_KL_FMN_B_6]
apparent KD of K4 kissing-loop reporter (input ligand: FMN 200 uM): 247 nM
apparent KD of K4 kissing-loop reporter (input ligand: arginine 13.2 mM): 353 nM
apparent KD of K4 kissing-loop reporter (input ligand: none): 417 nM
apparent KD of K4 kissing-loop reporter [1]: 476 nM
apparent KD of K4 kissing-loop reporter [2]: 342 nM

UGUGUUUACCUGACUCAGUGAUGUUGAGAAGGAGCGUGCGAAAGCACAGGUAGGUCGCUCAACCUAAAAUUCAGGUGAGCACUAA [#SwitchBubble 11 #K4Early]
apparent KD of K4 kissing-loop reporter (input ligand: FMN 200 uM): 366 nM
apparent KD of K4 kissing-loop reporter (input ligand: arginine 13.2 mM): 202 nM
apparent KD of K4 kissing-loop reporter (input ligand: none): 267 nM
apparent KD of K4 kissing-loop reporter [1]: 263 nM
apparent KD of K4 kissing-loop reporter [2]: 213 nM

GGUAGCAUGGCGGCCGCCACUUCAAAUGGAGUGAUGUUCCAAGGCAUCGCGAAAGCGAUGCCAGGAAGGACCGGGCCAUGCUACC
apparent KD of K4 kissing-loop reporter (input ligand: FMN 200 uM): 831 nM
apparent KD of K4 kissing-loop reporter (input ligand: arginine 13.2 mM): 859 nM
apparent KD of K4 kissing-loop reporter (input ligand: none): 522 nM
apparent KD of K4 kissing-loop reporter [1]: 566 nM
apparent KD of K4 kissing-loop reporter [2]: 143 nM

GGAAAUCUUGCCGAUACCAGAUCGCGCGGCCAUUGCUAGUGAUGUUGGCAAUAAGUACUCAUCCCUUGGCAGCGGUAAGGCAGUG [theeternabot_sameState_KL_Theo_B_23]
apparent KD of K4 kissing-loop reporter (input ligand: FMN 200 uM): 390 nM
apparent KD of K4 kissing-loop reporter (input ligand: arginine 13.2 mM): 293 nM
apparent KD of K4 kissing-loop reporter (input ligand: none): 359 nM
apparent KD of K4 kissing-loop reporter [1]: 195 nM
apparent KD of K4 kissing-loop reporter [2]: 280 nM

AACUGUCAAGGACAACAUUACUGAGGUGAUACCAGGUUUGAGAGGAUCCCUUGGCAGCACCAACUUGCAGUGAUGUUGCAAGUAA [BrourdMod 15 - Jieux - Exclusion - Theophylline A]
apparent KD of K4 kissing-loop reporter (input ligand: FMN 200 uM): 243 nM
apparent KD of K4 kissing-loop reporter (input ligand: arginine 13.2 mM): 211 nM
apparent KD of K4 kissing-loop reporter (input ligand: none): 240 nM
apparent KD of K4 kissing-loop reporter [1]: 254 nM
apparent KD of K4 kissing-loop reporter [2]: 243 nM
